# Test results: the DeepSol protein solubility set
# Test: soluble on expression in E. coli; label from the status in PepcDB or PDB records
row,Sequence,soluble on expression in E. coli
1,GNIAKPIRILGNGMDRVANGELETRISQQVDDRDDELSHLAIQFDKMVEKLEKLVAKERHLLHHVSHEMRSPLARMQAIVGLIQAQPQKQEQYLKRLEGELTRMDTLAGELLTLSRLETSNMALEKESLKLLPFLGNLVEDNQSIAQKNGQTVTLSADGKIPENTTILANESYLY,not soluble
2,SLTKPIGEKADPERLAAFLNEKGGNALSHLGFLGDKRFYFSSDGNALLLFGKIARRLVVLGDPSGQRESFPLVLEEFLNEAHQKGFSVLFYQIEREDMALYHDFGYNFFKLGEEAYVDLNTFTLTGKKKAGLRAINNRFEREEYTFHVDHPPFSDAFLEELKQISDEWLGSKKEKGFSLGFFDPSYLQKAPIAYMKNAEGEIVAFANVMPMYQEGEISVDLMRYRGDAPNGIMDALFIRMFLWAKEEGCTSFNMGMAPLANVGTAFTSFWSERFAAVIFNNVRYMYSFSGLRAFKEKYKPEWRGKYLAYRKNRSLSVTMFLVTRLIGKSKKDSV,soluble
3,MSLSDRDSTLSRLKSAGENGDVEAQYALGLMYLYGEILDVDYQQAKIWYEKAADQNDPRAQAKLGVMYANGLGVNQDYQQSKLWYEKAAAQNDVDAQFLLGEMYDDGLGVSQDYQHAKMWYEKAAAQNDERAQVNLAVLYAKGNGVEQDYRQAKSWYEKAAAQNSPDAQFALGILYANANGVEQDYQQAKDWYEKAAEQNFANAQFNLGMLYYKGEGVKQNFRQAREWFEKAASQNQPNAQYNLGQIYYYGQGVTQSYRQAKDWFEKAAEKGHVDAQYNLGVIYENGEGVSQNYQQAKAWYEKAASQNDAQAQFELGVMNELGQGESIDLKQARHYYERSCNNGLKKGCERLKELLYKEGHHHHHH,soluble
4,MSLEEAVDLSVLYVEDDELSRSGIFNALKRKVKNIHFAANGQEGLEVFKEHRPDVVITDIKMPLLNGLEMAKQILEMEPSVEIIVATAFEDAELFKRAIDLDVDKYLTKPLDVTQILMHLKRIEMQKRLEREFEVYSRALNEVASIFWFDLELECLKVNPRAIASGGEHGVENEKLKEMARLALEKGGRHQEGNKIFSVAFNVAKEPKGFCLCVMESMEEGHHHHHH,soluble
5,MSHPALTQLRALRYFDAIPALEPHLLDWLLLEDSMTKRFEQQGKRVSVTLIREAFVGQSEVEEASGLLPSESRYWLREILLCADGEPWLAGRTVVPESTLCGPEQVLQHLGKTPLGRYLFTSSTLTRDFIEIGRDATLWGRRSRLRLSGKPLLLTELFLPASPLY,not soluble
6,MVGGLTHVDEKGVKMVEIGYKDVVFRKAVAKGRIKLKPETVKLIKEGKIEKGNVLATAQIAGILAVKRTPELIPLCHPIPITGVDITFDFGEDYIEVTCEVRAYYKTGVEMEALTGVTVALLAIWDMVKAVEKDEKGQYPYTRIENVHVVEKVKTHNSQ,soluble
7,SETILEQQRRYHEEKERLMDVMAKEMLTKKSTLRDQINSDHRTRAMQDRYMEVSGNLRDLYDDKDGLRKEELNAISGPNEFAEFYNRLKQIKEFHRKHPNEICVPMSVEFEELLKARENPSEEAQNLVEFTDEEGYGRYLDLHDCYLKYINLKASEKLDYITYLSIFDQLFDIPKERKNAEYKRYLEMLLEYLQDYTDRVKPLQDQNELFGKIQAEFEKKWENGTFPGWPKETSSALTHAGAHLDLSAFSSWEELASLGLDRLKSALLALGLKCGGTLEERAQRLFSTKGKSLESLDTSLFAKNPKSKGTKRDTERNKDIAFLEAQIYEYVEILGEQRHLTHENVQRKQARTGEEREEEEEEQISESESEDEENEIIYNPKNLPLGWDGKPIPYWLYKLHGLNINYNCEICGNYTYRGPKAFQRHFAEWRHAHGMRCLGIPNTAHFANVTQIEDAVSLWAKLKLQKASERWQPDTEEEYEDSSGNVVNKKTYEDLKRQGLL,soluble
8,MKVWITGAGGMMGSHLAEMLLAAGHDVYATYCRPTIDPSDLQFNGAEVDITDWCSVYDSIATFRPDAVFHLAAQSYPAVSWARPVETLTTNMVGTAIVFEALRRVRPHAKIIVAGSSAEYGFVDPSEVPINERRELRPLHPYGVSKAATDMLAYQYHKSYGMHTVVARIFNCTGPRKVGDALSDFVRRCTWLEHHPEQSAIRVGNLKTKRTIVDVRDLNRALMLMLDKGEAGADYNVGGSIAYEMGDVLKQVIAACKRDDIVPEVDPALLRPTDEKIIYGDCSKLAAITGWQQEICLTQTIADMFDYWRSKSESALMV,not soluble
9,VDTHSEVLIFEVIPADDFLQQQLQITVQDRVWHVKRVRYRKQKPMALEETWMPLALFPDLTWQVMENSKYHFIEEVKKMVIDRSEQEIIPLMPTEEMSRLLNISQTKPILEKVSRGYLVDGRVFEYSRNAFNT,soluble
10,MKVDGIQAEMRAMMVEATNTTPTGTGAKVGADFNDLLTKAINNVNSLQKSSGDLQTRFDRGDADVSLSDVMIARNKSSVAFEATVQIRNKLVEAYKDLMNMPV,not soluble
11,MSLNAPKLVIGANGFLGSHVTRQLVADCAPQKGEVRAMVRPAANTRSIDDLPLTRFHGDVFDTATVAEAMAGCDDVYYCVVDTRAWLRDPSPLFRTNVAGLRNVLDVATDASLRRFVFTSSYATVGRRRGHVATEEDRVDTRKVTPYVRSRVAAEDLVLQYAHDAGLPAVAMCVSTTYGGGDWGRTPHGAFIAGAVFGRLPFTMRGIRLEAVGVDDAARALILAAERGRNGERYLISERMMPLQEVVRIAADEAGVPPPRWSISVPVLYALGALGSLRARLTGKDTELSLASVRMMRSEADVDHGKAVRELGWQPRPVEESIREAARFWAAMRTVGKDPAASEGHHHHHH,not soluble
12,MGSDKIHHHHHHMSDQRYNLRGVSASKEDVHNAIKNIDKGIFPKAFCKIIPDILGGDPEYCNIMHADGAGTKSSLAYMYWKETGDLSVWKGIAQDALIMNIDDLLCVGAVDNILVSSTIGRNKLLVPGEVISAIINGTDELLAELREMGVGCYATGGETADVGDLVRTIIVDSTVTCRMKRSDVIDNKNIQGGDVIVGLASSGQATYEKEYNGGMGSNGLTSARHDVFSKYLAKKYPESYDAAVPKELVYSGGLKLTDKIEELGIDAGKMVLSPTRTYAPVIKVLLDKLRSQIHGMVHCSGGAQTKVMHFVENKRVTKDNLFPIPPLFRTIQEQSGTDWSEMYKVFNMGHRMEIYIAPEHAEEVIGISKSFGIDAQIVGFVEEADKNELIIESEKGRFTY,not soluble
13,MTKSLESVSFKDVTVDFSRDEWQQLDLAQKSLYREVMLENYFNLISVGCQVPKPEVIFSLEQEEPCMLDGEIPSQSRPDGDIGFGPLQQRMSEEVSFQSEININLFTRDDPYSILEELWKDDEHTRKCGENQNKPLSRVVFINKKTLANDSIFEYKDIGEIVHVNTHLVSSRKRPHNCNSCGKNLEPIITLYNRNNATENSDKTIGDGDIFTHLNSHTEVTACECNQCGKPLHHKQALIQQQKIHTRESLYLFSDYVNVFSPKSHAFAHESICAEEKQHECHECEAVFTQKSQLDGSQRVYAGICTEYEKDFSLKSNRQKTPYEGNYYKCSDYGRAFIQKSDLFRCQRIHSGEKPYEYSECEKNLPQNSNLNIHKKIHTGGKHFECTECGKAFTRKSTLSMHQKIHTGEKPYVCTECGKAFIRKSHFITHERIHTGEKPYECSDCGKSFIKKSQLHVHQRIHTGENPFICSECGKVFTHKTNLIIHQKIHTGERPYICTVCGKAFTDRSNLIKHQKIHTGEKPYKCSDCGKSFTWKSRLRIHQKCHTGERHYECSECGKAFIQKSTLSMHQRIHRGEKPYVCTECGKAFFHKSHFITHERIHTGEKPYECSICGKSFTKKSQLHVHQQIHTGEKPYRCAECGKAFTDRSNLFTHQKIHTGEKPYKCSDCGKAFTRKSGLHIHQQSHTGERHYECSECGKAFARKSTLIMHQRIHTGEKPYICNECGKSFIQKSHLNRHRRIHTGEKPYECSDCGKSFIKKSQLHEHHRIHTGEKPYICAECGKAFTIRSNLIKHQKIHTKQKPYKCSDLGKALNWKPQLSMPQKSDNGEVECSMPQLWCGDSEGDQGQLSSI,soluble
14,MKANANAFYAINGNSVIDFKESSKAKDVCEFLGRIKEENEYDPIVVLDNSKTHHADITIKKAKQLDITLVFLPPYSPDLNPIEFIWKSVRKEILKEFIESVTQLRDLIKNEYMKLAKSKSFANNWMKIFDEQIKSVMNSLEHHHHHH,not soluble
